# Measurements as given in the nanobody polyreactivity screen of Harvey et al. (2022).
# Assay: yeast display, Sf9 membrane polyspecificity reagent, FACS + sequencing; frameworks hold sequencing errors
# In short: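 A synthetic nanobody library was expressed on Saccharomyces cerevisiae BJ5465 by galactose induction for 36–48 hours. The library was stained for 1 hour at 4 °C with 10% biotinylated, detergent-solubilized Sf9 membrane reagent and enriched with streptavidin microbeads before FACS. Low and high (top ~1%) gates were set on anti-HA fluorescence for expression and streptavidin fluorescence for reagent binding, and each polyreactivity label reflects the gate of origin.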
row,Sequence,polyreactivity (PSR sort gate)
1,QVQLVESGGGLVQAGGSLRLSCAASGSIFWQNTMGWYRQAPGKERELVAAISWSGGRTYYADSVKGRFTISRDNAKNTVYLQMNSLKPEDTAVYYCAAAFSPGWWSRHTYDYDYWGQGTQVTVSS,high polyreactivity
2,QVQLVESGGGLVQAGGSLRLSCAASGSIFWRNAMGWYRQAPGKERELVAAISRVGSTNYADSVKGRFTISRDNAKNTVYLQMNSLKPQDTAVYYCAVDGGEFSSYGYWGQGTQVTVSS,low polyreactivity
3,QVQLVESGGGLVQAGGSLRLSCAASGSIFWRNMGWYRQAPGKERELVAAISYGSVSTYYADSVKGRFTISRDNAKNTVYLQMNSLKPEDTAVYYCAATLPGWYNEHDSWGLGTQVTVSS,low polyreactivity
4,QVQLVESGGGLVQAGGSLRLSCAASGSIFWRYAMGRYRQAPGKEREVVAAISGSGVRTSYADSVKGRFTISRDNAKNTVYLQMNSLKAEDTAVYYCATDIRSGRYYWGQGTQVTVSS,high polyreactivity
5,QVQLVESGGGLVQAGGSLRLSCAASGSIFWRYAMGWYRQAPGKERELVAAINYSTTRTYYADSVKGRFTISLDNAKNTVYLQMNSLKPEDTAVYYCAADSRVDEGEYWGQGTQVTVSS,high polyreactivity
6,QVQLVESGGGLVQAGGSLRLSCAASGSIFWSYAMGWYRQAPGKERELVAAITRSGGSTYYADSVKGRFTISRDNAKNTVYLQINSLKPEDTAVDYCNAATPYSWGYRRGYWGQGTQVTVSS,high polyreactivity
7,QVQLVESGGGLVQAGGSLRLSCAASGSIFWSYAMGWYRQAPGKERELVADSVKGRFTISRDNAKNTVYLQMNSLKPEDTAVYYCAADSPSAPVYLYDYWGQGTQVTVSS,low polyreactivity
8,QVQLVESGGGLVQAGGSLRLSCAASGSIFWSYAMGWYRQAPGKERELVASISRSTGRTRYADSVKGRFTISRDNAKNTVYLQMNSLKPEDTAVYYCAATRRAGFTTAKFDYWGQGTQVTVSS,high polyreactivity
9,QVQLVESGGGLVQAGGSLRLSCAASGSIFWTNAMGWYRQAPGKERELVAAIRVSTGSTYYADSVKGRFTISRDIAKNNVYLQMNSLKPEDTAVYYCNADLYIYEWYPALHSNDYWGQGTQVTVSS,low polyreactivity
10,QVQLVESGGGLVQAGGSLRLSCAASGSIFWVNAMGWYRQAPGKERELVAAITWSAGSTYYADSVKGRFTISRDNAKNTVYLQMNSLKPEDTAVYYCAAGGAWYYWTLDYWGQGTQVTVSS,low polyreactivity
11,QVQLVESGGGLVQAGGSLRLSCAASGSIFWVYAMGWYRQAPGKERELVAAISSGGSTNYADSVKGRFTISRDNAKNTVYLQMNSLKPEDTAVYYCAAVIRTVRERYGFWGQGTQVTVSS,high polyreactivity
12,QVQLVESGGGLVQAGGSLRLSCAASGSIFWVYAMGWYRQAPGKERELVAVIDWSGDSTYYADSVKGRFTISRDNAKNTVYLQMNSLKPEDTAVYYCSAEVYVDYTGYSYFDYPYDYWGQGTQVTVSS,low polyreactivity
13,QVQLVESGGGLVQAGGSLRLSCAASGSIFWVYVLGWYRQAPGKERELVAAITNGGSTDYADSVKGRFTISRDNAKNTVYLQMNSLKPEDTAVYYCAKRSTIWGRILITYDYWGQGTQVTVSS,low polyreactivity
14,QVQLVESGGGLVQAGGSLRLSCAASGSIFWYNAMGWYRQAPGKERELVAAIRWRGGSTYYADSVKGRFTISRDNAKNTVYLQMNSLKPEDTAVYDCAAQVYVSQLYTSYYYWGQGTQVTVSS,high polyreactivity
15,QVQLVESGGGLVQAGGSLRLSCAASGSIFWYNTMGWYRQAPGKERELVAAISSSGGTTYYADSVKGRFTISRDNAKNTVYLQMNSLKPEDTAVYYCAATVGDAYYEYDYWGQGTQVTVSS,low polyreactivity
16,QVQLVESGGGLVQAGGSLRLSCAASGSIFWYNTMGWYRQAPGKERELVASISWDGGTYYADSVKGRFTISRDNAKNTVYLQMNSLKPEDTAVYYCNVAWYWGYDYWGQGTQVTVSS,low polyreactivity
17,QVQLVESGGGLVQAGGSLRLSCAASGSIFWYYAMGWSRQAPGKERELVASISSSGGSTYYADSVKGRFTISRDNAKNTVYLQMNSLKPEDTAVYYCAVRSPYRLSRWRVGYWGQGTQVTVSS,high polyreactivity
18,QVQLVESGGGLVQAGGSLRLSCAASGSIFWYYAMGWYRQAPGKERELDASITRGGSTKYADSVKGRFTISLDNAKNPVYLQMNSLKPEDTAVYYCATTYRLYRVNYDYYWGQGTQVSVSS,high polyreactivity
19,QVQLVESGGGLVQAGGSLRLSCAASGSIFYANAMGWYRQAPGKERELVAAISRSGGRTYYADSVKGRFTISRDNSKNTVYLQMNSLKPEDTAVYYCAADTGRYRDSNYWGQGTQVTVSS,high polyreactivity
20,QVQLVESGGGLVQAGGSLRLSCAASGSIFYDKDSGWYRQAPGKERELFAAITSTGGSTYYADSVKGRFTISRDHAKNTVYLQMNSLKPEDTAVYDCNTPTYLYWGFNTYDYWGQGTQFTVSS,low polyreactivity
21,QVQLVESGGGLVQAGGSLRLSCAASGSIFYDNAMGWYRQAPGKERELVAAITIDGSTYADSVKGRFTISRDNAKYTVYLQMNSLKPEDTAVYYCAAEWDTNFWYDYWGQGTQVTVSS,low polyreactivity
22,QVQLVESGGGLVQAGGSLRLSCAASGSIFYDNDMGWYRQAPGNERELVAAISWSASDTYYADSVKGRFTISRDNAKNTVYLQMNSLKPDDTAVYYCNAEVYEWYVVYSALDYWGQGTQVTVSS,low polyreactivity

row,Sequence,polyreactivity (PSR sort gate)
1,QVQLVESGGGLVQAGGSLRLSCAASGSIFYENDMGWYRQAPGKERELVAAISSGGTTNYADSVKGRFTISRDNAKNTVYLQMNSLKPEDTAVYYCAAEYPSVYYERFDYWGQGTQVTVSS,low polyreactivity
2,QVQLVESGGGLVQAGGSLRLSCAASGSIFYFHALGWYRQAPGKERELVAAITRRGGSTRYADSVKGRFTISRDNAKNTVYLQMNSLKPEDTAVYYCAAVKEYSYSYKSYDVYYWGQGTQVTVSS,high polyreactivity
3,QVQLVESGGGLVQAGGSLRLSCAASGSIFYFNAMGWYRQAPGKERELVAAITYSGGSTYYADSVKGRFTISRDNAKNTVYLQMNSLKPEDTAVYYCAAERRTFPLRNFDYWGQGTQVTVLS,low polyreactivity
4,QVQLVESGGGLVQAGGSLRLSCAASGSIFYFNAMGWYRQAPGKERELVAAITYSGGSTYYADSVKGRFTISRDNAKNTVYLQMNSLKPEDTAVYYCNAQVYYSVRGYPYGYYRNDYWGQGTQVTVSS,low polyreactivity
5,QVQLVESGGGLVQAGGSLRLSCAASGSIFYFYTMGWYRQAPGKEREFVAAINGIGGSTYYADSVKGRFTISRDNAKNTVYLQMNSLKPEDTAVYYCAADAPWFKRNARKYNYWGQGTQVTVSS,low polyreactivity
6,QVQLVESGGGLVQAGGSLRLSCAASGSIFYGNTMGWYRQAPGKERELVAAIDYRGDSTYYADSVKGRFTISRDNAKNTVYLQMNSLKPVDTAVYYCAADQTPVGQVYYGTLSIRDYWGQGTQVSVSS,low polyreactivity
7,QVQLVESGGGLVQAGGSLRLSCAASGSIFYGNTMGWYRQAPGKERELVAAISSGGSTKYADSVKGRFTISRDNAKNTVYLQMNSLKPEDTAVFYCAADLPRYWVTWMDYWGQGTQVTVSS,low polyreactivity
8,QVQLVESGGGLVQAGGSLRLSCAASGSIFYGNVMGWYRQAPGKERELVAAISWRGGSTYYADSVKGRFTMSRDNAKNTVYLPMNSLKPEDTAVYYCNAERYYYATYGYPIDYWGQGTQVTVSS,low polyreactivity
9,QVQLVESGGGLVQAGGSLRLSCAASGSIFYGYAMGWYRPAPGKERELVAAITSGGRTYYADSVKGRFTISRDNAKNTVYLQMNSLKPEDTAVYYCNKLNYWSVRYEYWGQGTQVTVSS,high polyreactivity
10,QVQLVESGGGLVQAGGSLRLSCAASGSIFYGYAMGWYRQAAGNERELVAAITTGGSTYCADSVKGRFTISRDNAKNTVYLQMNSLKPEDTAVYYCAAKYYTGGSFEMYYWGQGNQVTVSS,high polyreactivity
11,QVQLVESGGGLVQAGGSLRLSCAASGSIFYGYAMGWYRQAPGKEREFVASINSGVGSTYYADSVKGRFTISRDNAKNTVYLLMNSLKPEDTAVYYCNKVHRSFTYNDGQTPAYDYWGQRTQVTVSS,low polyreactivity
12,QVQLVESGGGLVQAGGSLRLSCAASGSIFYGYAMGWYRQAPGKERELVAAISWTGGRTYYADSVKGRFTISRDNAKNTVYLQMNSLKPEDTAVYYCNVRRYSVVSGGYWGQGTQVTVSS,high polyreactivity
13,QVQLVESGGGLVQAGGSLRLSCAASGSIFYGYAMGWYRQAPGKERELVAAISYSGDRTYYADSVKGRFTISRDNAKNTVYLQMNSLKPEDTAVYYCAARKHGGTVRGRRDYWGQGTQVTVSS,high polyreactivity
14,QVQLVESGGGLVQAGGSLRLSCAASGSIFYGYAMGWYRQAPGKERELVAAITDVGSTNYADSVKGRFTISRDNAKNTVYLQMNSLKPEDTAVYYCAADNYRRSSVDPFTDTMGYWGQGTQVTVSS,low polyreactivity
15,QVQLVESGGGLVQAGGSLRLSCAASGSIFYGYAMGWYRQAPGKERELVAVISRRGDSTYYADSVKGRFTISRDNAKNSVYLQMNSLKPEDTAVYYCASYGSLSKGFGYWGQGTQVTVSS,low polyreactivity
16,QVQLVESGGGLVQAGGSLRLSCAASGSIFYGYTMGWYRQAPGKERELVAAITYRGGRTYYADSVKGRFTISRDNAKNTDYLQMNSLKPEDTAVYYCAARYDYFSSKYGYWGQGTQVTVSS,high polyreactivity
17,QVQLVESGGGLVQAGGSLRLSCAASGSIFYHYAMGWYRQAPGKERELVAAISRSGGRTYYADSVKGRFTISRDNAKNTVYLQMNSLKPEDTAVYYCNKDYYYPNSWPKYDYWGQGTQVTVSS,low polyreactivity
18,QVQLVESGGGLVQAGGSLRLSCAASGSIFYHYAMGWYRQAPGKERELVATINWSGGSTYYADSVKGRFTISRDNAKNTVYLQMNSLKPEDTAVYYCYSDSAIGLYVSSTPYGYDYWGQGTQVTVSS,low polyreactivity
19,QVQLVESGGGLVQAGGSLRLSCAASGSIFYINAMVWYRPAPGTERELLAAITSGGTYYADSVKGRFTISRDNAKNTVYLQMNSLKPEDTAVDYCAADREGTPLFDYWGQGTQVTVSS,low polyreactivity
20,QVQLVESGGGLVQAGGSLRLSCAASGSIFYKNAMGWYRQAPGKERELVAVISTSGSTYYADSVKGRFTISRDNAKNTVYLQMKSLKPEDTAVYYCATKVRRWYSARSPNVRFDYWGQGTQVTVSS,high polyreactivity
21,QVQLVESGGGLVQAGGSLRLSCAASGSIFYKYAMGWYRQAPGKEREFVAAITGSGVRTYYADSVKGRFTISRDNAKNTVYLQMNRLKPDDTAVYYCAASSYGYDYWGQGTQVTVSS,high polyreactivity
